# Laboratory results reported in patent publication US11491212.
# Several values for one entry are separate records, joined by “and”; a condition that tells them apart may be missing. Equal entries are not always repeated.
# Biological target: Factor X (FX), P00742
# Sequence (P00742 whole entry, looked up): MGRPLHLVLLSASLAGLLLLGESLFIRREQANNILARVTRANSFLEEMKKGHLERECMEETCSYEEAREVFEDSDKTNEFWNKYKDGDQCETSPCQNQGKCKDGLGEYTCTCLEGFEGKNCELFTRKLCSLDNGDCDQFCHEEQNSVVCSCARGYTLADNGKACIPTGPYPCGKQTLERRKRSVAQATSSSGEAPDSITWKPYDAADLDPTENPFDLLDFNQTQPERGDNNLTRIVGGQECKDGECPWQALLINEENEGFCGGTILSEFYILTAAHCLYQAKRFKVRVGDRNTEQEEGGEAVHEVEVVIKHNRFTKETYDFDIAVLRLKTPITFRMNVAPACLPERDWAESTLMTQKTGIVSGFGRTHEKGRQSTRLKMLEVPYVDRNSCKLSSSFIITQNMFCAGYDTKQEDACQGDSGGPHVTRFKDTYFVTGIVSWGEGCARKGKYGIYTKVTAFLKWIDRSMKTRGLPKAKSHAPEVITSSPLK
Protein,% of WT kcat/KM,KM [nM],"KM for FX activation by FIXa in the Xase complex (FVIIIa/PC-PS/Ca2+), fluorogenic Spectrafluor FXa assay [nM]",kcat [s⁻¹],kcat/KM [M⁻¹ s⁻¹]
FIXa-R318Y/R338E/R403E/E410N (protein) chain 1: not shown chain 2: not shown,262% and 320%,43.2,45.5,5.8,1.2e+08
FIXa-D104N/K106S/R318Y/R338E/E410N (protein) chain 1: not shown chain 2: not shown,581% and 564%,18.9,18.9,4.8,–
FIXa-D203N/F205T/R318Y/E410N (protein) chain 1: not shown chain 2: not shown,88% and 85%,45.7,45.7,1.6,–
FIXa-R318Y/R403E/E410N (protein) chain 1: not shown chain 2: not shown,59% and 54%,94.2,88.3,2.3,2.7e+07
FIXa-A103N/N105S/R318Y/R338E/R403E/E410N (protein) chain 1: not shown chain 2: not shown,327% and 318%,44.7,44.7,5.4,–
FIXa-Y155F/R318Y/R403E/E410N (protein) chain 1: not shown chain 2: not shown,78%,111,–,2.9,–
FIXa-D104N/K106S/Y155F/R318Y/R338E/R403E/E410N (protein) chain 1: not shown chain 2: not shown,394% and 382%,48,48,8.5,–
FIXa-Y155F/R318Y/R338E/E410N (protein) chain 1: not shown chain 2: not shown,835% and 810%,16,16,5.6,–
FIXa-A103N/N105S/Y155F/R318Y/R338E/R403E/E410N (protein) chain 1: not shown chain 2: not shown,283% and 274%,50.7,50.7,6.4,–
FIXa-Y155F/R318Y/R338E/R403E/E410N (protein) chain 1: not shown chain 2: not shown,418% and 406%,30.4,30.4,5.3,–
FIXa-K228N/R318Y/E410N (protein) chain 1: not shown chain 2: not shown,272% and 264%,42,42,5,–
FIXa-D104N/K106S/R318Y/R338E/R403E/E410N (protein) chain 1: not shown chain 2: not shown,377% and 366%,38.5,38.5,5.7,–
